Publication PMC9907207 (Nature Communications, 2023)

Target: T1, D614G VFLIP spike trimer (SARS-CoV-2, ancestral with D614G, VFLIP …, stabilised)
T1 construct: also called stabilized D614G ancestral trimeric spike ("VFLIP"); trimeric spike
Test: cryo-EM structure
Conditions: both partners purified

Binder | stoichiometry N
GAR05 Fab (Fab, V domains shown, also called GAR05 Fab fragment; source: ExpiCHO, purified (Talon resin, S200 SEC)) VH: EVQLVQSGGDLVQPGGSLRLSCAVSGFTVSRNYMTWVRQAPGRGLEWVSLIYPGGSAFYADSVKGRFTISRDNSKNTLYLQMNSLRVEDTAVYYCARDPVSTGHYHDSDYWGQGTLVTVSS VL: DIQMTQSPSALSASVGDRVTITCQASQDINKFLNWYQQKPGKAPKLLIYDASNLETGVPSRFSGGGSGTDFTFTISSLQPEDIATYYCHQYDNLPRTFGQGTKVELK | 3 Fabs per spike trimer
GAR03 Fab (Fab, V domains shown, also called GAR03 antibody Fab; source: ExpiCHO, purified (Talon resin, S200 SEC)) VH: QVQLVQSGAEVKKPGASVKVSCKASGYTFSSYDINWVRQAPGQGLEWMGWMSPNSGNTGYAQKFQGRVTMTRSTSMSTAYMELSSLRSEDTAVYFCARMSSSLTNYLDYWGQGTLVTVSS VL: SYVLTQPPSVAVAPGQTARIRCGENDIGSKNVHWYQQKSGQAPVLVVYDDSDRPSGIPERFSGSNSGNTATLTISRVEAGDEADYYCQVWDSTGDHPDVVFGGGTKLTVL | 1 Fab per spike trimer
